# Source: patent US20040143095A1
# Where no end group is shown, it is not given here.
# Tests used:
# [1] = molecular target: endogenous CRF-R2β of A7r5 rat aortic smooth muscle cells (rat), P47866; experiment: cell-based or functional assay
# [2] = molecular target: mouse CRF receptor type 2β (mouse) (UniProt Q60748); experiment: radioligand displacement ([125I-Tyr0,Glu1,Nle17]-sauvagine), CHO membranes
# [3] = molecular target: rat CRF receptor type 2α (rat) (UniProt P47866); experiment: as above
# rat CRF receptor type 2α (rat), sequence (P47866 20-411): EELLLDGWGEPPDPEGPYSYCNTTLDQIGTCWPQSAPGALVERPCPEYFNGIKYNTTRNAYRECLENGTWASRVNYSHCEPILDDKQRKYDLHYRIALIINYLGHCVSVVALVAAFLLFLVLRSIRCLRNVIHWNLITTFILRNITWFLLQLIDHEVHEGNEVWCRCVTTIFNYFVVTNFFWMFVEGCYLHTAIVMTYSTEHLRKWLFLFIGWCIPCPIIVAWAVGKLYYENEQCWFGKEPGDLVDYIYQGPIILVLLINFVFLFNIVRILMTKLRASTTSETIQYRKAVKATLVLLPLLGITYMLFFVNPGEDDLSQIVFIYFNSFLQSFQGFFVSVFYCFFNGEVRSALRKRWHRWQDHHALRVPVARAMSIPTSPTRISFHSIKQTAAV
# endogenous CRF-R2β of A7r5 rat aortic smooth muscle cells (rat), P47866, sequence (P47866 20-411): as above
Binder,"cAMP accumulation in A7r5 rat aortic smooth muscle cells, EC50 [1]",Ki [2],Ki [3]
"VILSLDVPIGLLRILLEQARYKAARNQAATNAQILAHV (peptide, UniProt Q99ML8 73-110, looked up) [Urocortin II (mouse), Q99ML8 73-110]",0.18 nM,–,–
"VILSLDVPIGLLRILLEQARYKAARNQAATNAQILAHV (peptide, UniProt Q99ML8 73-110, looked up) [Urocortin II (mouse)]",–,0.66 nM,2.1 nM
"IVLSLDVPIGLLQILLEQARARAAREQATTNARILARV (peptide, UniProt Q96RP3 72-109, looked up) [Urocortin II (human)]",–,0.5 nM,1.7 nM

# Second part, the binder after the results:
"cAMP accumulation in A7r5 rat aortic smooth muscle cells, EC50 [1]",Ki [2],Ki [3],Binder
3.7 nM,1.8 nM,5 nM,FTLSLDVPTNIMNILFNIDKAKNLRAKAAANAQLMAQI-NH2 [Urocortin III (mouse)]
80.9 nM,13.5 nM,21.7 nM,FTLSLDVPTNIMNLLFNIAKAKNLRAQAAANAHLMAQI-NH2 [Urocortin III (human)]
